In article PMC9898259, “Cryo-EM structure supports a role of AQP7 as a junction protein” (Nature Communications, 2023):

Target: the molecule itself
Assay: cryo-EM structure; single-particle cryo-EM; 1 mg/mL AQP7 in GDN on Quantifoil Cu R1.2/1.3 holey carbon grids, 4 °C; octamer = dimer of tetramers; D4 (2.55 Å) and C1 (3.0 Å) reconstructions

B1: Human aquaglyceroporin 7 (AQP7), full-length, C-terminal poly-histidine tag (natural protein, UniProt O14520 1-342, looked up)
chain: MVQASGHRRSTRGSKMVSWSVIAKIQEILQRKMVREFLAEFMSTYVMMVFGLGSVAHMVLNKKYGSYLGVNLGFGFGVTMGVHVAGRISGAHMNAAVTFANCALGRVPWRKFPVYVLGQFLGSFLAAATIYSLFYTAILHFSGGQLMVTGPVATAGIFATYLPDHMTLWRGFLNEAWLTGMLQLCLFAITDQENNPALPGTEALVIGILVVIIGVSLGMNTGYAINPSRDLPPRIFTFIAGWGKQVFSNGENWWWVPVVAPLLGAYLGGIIYLVFIGSTIPREPLKLEDSVAYEDHGITVLPKMGSHEPTISPLTPVSVSPANRSSVHPAPPLHESMALEHF
notes: Aquaporin-7 (aquaglyceroporin 7), human, full-length gene; residues 25-277 modelled in the 2.55 Å map; Tetramers that pair into an octamer (dimer of tetramers) in the cryo-EM structure; only ~47% of all particles were in the octamer class; also called human AQP7; source: P. pastoris GS115 aqy1Δ::HIS4 agp1Δ::NatMX, purified (Ni-NTA, size-exclusion chromatography) in GDN
stoichiometry N: 8
